Here are results for one molecule from PMC6720452, “Structural Basis for Recruitment of DAPK1 to the KLHL20 E3 Ligase” (Structure(London, England:1993), 2019).

This assay has as its target T1, KLHL20 Kelch domain (human, UniProt Q9Y2M5 303-605).
T1 construct: Kelch domain of human KLHL20, Uniprot Q9Y2M5 isoform 1, M303-E605; structure traced from residues 317 to 601; Used for SPR (amine-coupled) and crystallisation; also called untagged KLHL20 Kelch; source: E. coli BL21(DE3)R3-pRARE2, purified (nickel sepharose, size exclusion, anion exchange)
T1 sequence (looked up): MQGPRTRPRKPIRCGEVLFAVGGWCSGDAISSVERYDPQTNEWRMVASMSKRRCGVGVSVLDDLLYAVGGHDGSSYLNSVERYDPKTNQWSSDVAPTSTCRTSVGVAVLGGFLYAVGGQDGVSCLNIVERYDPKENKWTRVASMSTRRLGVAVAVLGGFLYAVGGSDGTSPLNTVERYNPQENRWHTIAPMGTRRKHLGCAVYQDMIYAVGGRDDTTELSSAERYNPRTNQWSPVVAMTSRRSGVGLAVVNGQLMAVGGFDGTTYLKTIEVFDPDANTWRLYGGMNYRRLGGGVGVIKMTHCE
In words: crystal structure; KLHL20 Kelch domain 12 mg/mL with 3 mM DAPK1 peptide; sitting drop, 2 M sodium chloride, 0.1 M acetate pH 4.5, 20°C; 1.1 Å. The conditions noted are these: both partners purified.

B1: 11-residue DAPK1 peptide (crystallization peptide) (peptide)
peptide: LGLPDLVAKYN
notes: also called LT1342; source: synthetic peptide, bought: LifeTein
For the molecule B1, the binding result is given as “binds”.
